Laboratory results published in paper PMC11071394.
“And” between values parts separate entries of the source, which are not always exact repeats. Equal entries are not always repeated.

Target: Sg Enc, Family 2B encapsulin shell protein from Streptomyces griseus (expressed in S. coelicolor A3(2)) (Streptomyces griseus)
Experiment: cryo-EM structure

“Sg Enc, Family 2B encapsulin shell protein from Streptomyces griseus (expressed in S. coelicolor A3(2)) (natural protein)” gave a stoichiometry N of 60 protomers.

In the case of “Sg 2-methylisoborneol synthase (2-MIBS) from Streptomyces griseus, co-expressed with Sg Enc (enzyme)”, the 2-MIBS dimers per shell (dimers per shell) is reported as 3 and 4.
